Reference: US20200392252A1 (ALLOGENE THERAPEUTICS, published 2020)
Substitutions are numbered along the chain they refer to.

T1: FokI catalytic domain protein including a C-terminal 6xHis tag and GSGS linker (Flavobacterium okeanokoites, UniProt P14870 426-579)
T1 construct: also called Fok-1; Fok1
T1 sequence: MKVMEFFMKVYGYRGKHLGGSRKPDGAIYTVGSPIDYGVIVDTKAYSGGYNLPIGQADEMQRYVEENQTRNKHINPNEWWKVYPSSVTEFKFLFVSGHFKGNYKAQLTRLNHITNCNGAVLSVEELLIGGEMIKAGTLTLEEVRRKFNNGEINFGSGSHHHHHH

B1: 2299.5D4.C8 (antibody, V domains shown)
VH: QIQLVQSGPELKKPGETVKISCKASGYTFTDYSIHWVKQAPGEGLKWMAWINTETGAPTFADDFKGRLALSLETSANTAYLQINNLKHEDTATYFCAKEGGFYFYAMDYWGQGTSVTVSS
VL: DIVMSQSPSSLAVSAGEKVTMSCKSSQSLLSSRTRKNYLAWYQQKPGQAPKLLISWASTRESGVPDRFTGSGSGTEFTLTISSVQAEDLAVYYCKQSYNLRTFGGGTKLEIK
B2: 2299.6B3.B8.B6 (antibody, V domains shown)
VH: QIQLVQSGPELKKPGETVKISCKASGYAFTDYSIHWMKQAPGEGLQWMGWINTETAKPAFGDDFKGRFAFSLETSANTAHLHINNLRTEDTATYFCAKEGGFYFYAMDYWGQGTSVTVSS
VL: B1 VL with S22N, A49S, S55Y, E61D, E76D, L100F
B3: 2299.6G5.C7 (antibody, V domains shown)
VH: B1 VH with E43K, A49G, L68F, L70F, N77S, Y80F, H88N, V116L
VL: B1 VL with A15T, E76D, Y98F
B4: 2299.7F11.B4 (antibody, V domains shown)
VH: B1 VH with E43K, A57D, F60Y, A61E, L68F, L70F, N77S, H88N, A97S
VL: B1 VL with A49S, S55K, E76D
B5: 2299.2G3.C6 (antibody, V domains shown)
VH: B1 VH
VL: B1 VL with L11R, L52M, S62F, S73F, E76D, A86G, L100F

target: T1, FokI catalytic domain protein including …; assay: Biacore SPR, antibody as ligand, FokI as analyte

Binder | Kd [nM] | koff [s⁻¹] | kon [M⁻¹ s⁻¹] | t1/2 [h]
B1 | < 7.63 | < 8.55e-05 | 11200 | > 2.25
B2 | < 8.66 | < 8.55e-05 | 9870 | > 2.25
B3 | < 16.2 | < 8.55e-05 | 5270 | > 2.25
B4 | < 1.13 | < 8.55e-05 | 75700 | > 2.25
B5 | < 4.83 | < 8.55e-05 | 17700 | > 2.25
